Target: commercially-prepared stable A-beta42 Oligomers (SynAging) (human)
Assay: SPR; antibody covalently immobilized, stable A-beta42 oligomers at 1 microM

commercially-prepared stable A-beta42 Oligomers (SynAging) (human), sequence (peptide, as listed by the source): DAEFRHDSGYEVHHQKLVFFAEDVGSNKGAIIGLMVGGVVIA

binding response units (BRU), mean: 2.5 BRU
Substance: negative control IgG1 (antibody)

From patent EP3574020B1
